As a reminder, the Kd is the free concentration of one partner at which half of the binding sites on the other are occupied at equilibrium, for simple one-to-one binding.

Positions count from the first letter of the chain named.

Drawing on paper PMC9636422, “AZIN1 RNA editing alters protein interactions, leading to nuclear translocation and worse outcomes in prostate cancer” (Experimental & Molecular Medicine, 2022), this text covers Kd for one molecule.

Assay in all cases: FRET or BRET; AZ-mRuby2 titrated (100 pM-1 µM) to a fixed concentration of Clover-AZIN1 variants (50 nM); TBS pH 7.4 + 0.15% Tween-20; equilibrated at room temp for 1 h; donor quenching fitted
Holding throughout (settings): both partners purified

Experiment [1] addresses T1, Clover-AZIN1 S367N mutant, recombinant fusion protein (human, UniProt O14977 1-448, S367N).
T1 construct: source: E. coli (pBAD vector), purified recombinant; not shown: Clover, N-terminal, kept
T1 sequence (looked up): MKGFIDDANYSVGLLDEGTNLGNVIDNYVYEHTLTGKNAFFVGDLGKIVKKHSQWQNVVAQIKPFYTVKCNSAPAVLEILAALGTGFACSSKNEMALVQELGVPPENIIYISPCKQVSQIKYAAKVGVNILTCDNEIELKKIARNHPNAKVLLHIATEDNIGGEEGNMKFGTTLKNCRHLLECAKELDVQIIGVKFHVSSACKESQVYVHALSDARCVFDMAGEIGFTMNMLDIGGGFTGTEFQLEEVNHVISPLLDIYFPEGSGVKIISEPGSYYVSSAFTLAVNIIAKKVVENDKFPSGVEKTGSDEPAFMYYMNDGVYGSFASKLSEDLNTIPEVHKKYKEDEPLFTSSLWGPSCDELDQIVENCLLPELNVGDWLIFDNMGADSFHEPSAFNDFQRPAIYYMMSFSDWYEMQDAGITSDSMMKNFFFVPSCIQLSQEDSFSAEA

For experiment [2], the target named is T2, Clover-AZIN1 S367G (edited AZIN1), recombinant fusion protein (human, UniProt O14977 1-448, S367G).
T2 construct: Point mutation introduced by PCR-based site-directed mutagenesis; source: E. coli (pBAD vector), purified recombinant; not shown: Clover, N-terminal, kept
T2 sequence (looked up): T1 sequence (looked up) with N367G

Experiment [3] deals with T3, Clover-AZIN1 (wild type), recombinant fusion protein (human, UniProt O14977 1-448).
T3 construct: The vector encodes the 6X-HIS-tagged fluorescent protein with a TEV protease cleavage site; also called wild-type protein; hAZIN1; source: E. coli (pBAD vector), purified recombinant; not shown: Clover, N-terminal, kept
T3 sequence (looked up): T1 sequence (looked up) with N367S

Experiment [4] deals with T4, Clover-AZIN1 S367A mutant, recombinant fusion protein (human, UniProt O14977 1-448, S367A).
T4 construct: source: E. coli (pBAD vector), purified recombinant; not shown: Clover, N-terminal, kept
T4 sequence (looked up): T1 sequence (looked up) with N367A

B1: antizyme-mRuby2 (AZ-mRuby2), recombinant fusion protein (natural protein)
chain: not shown
notes: antizyme (human OAZ1 gene, codon optimised for E. coli and synthesised de novo); also called hOAZ1; source: E. coli (pBAD vector, codon-optimised gene), purified recombinant
On to B1, for which the dissociation constant (Kd) came out at 40 nM in experiment [1], 57 nM in experiment [2], 22 nM in experiment [3] and 39 nM in experiment [4].
